Laboratory results published in patent US7276363B2, “Nucleic acid molecules encoding red and green emitting luciferases” (Toyo Boseki Kabushiki Kaisha, priority 1998, dated 2007).

Key:
[1] = Luciferase assays: luminometer light output and time course; format: biochemical; details: for total light output: in vivo and in vitro assays of IPTG-induced colonies, corrected for spectral photosensitivity
Protocol: The activity levels were measured using a Luminescencer AB-2000 luminometer (Atto; Tokyo, Japan) by integration of total light emitted. The assay consisted of the addition of 50 μL of standard solution (2 mM ATP, 0.5 mM D-luciferin, 4 mM MgSO4 in 0.1 M Tris-HCl buffer, pH 8.0) to 10 μL of luciferase-containing extracts at 25° C. In vivo light intensities were measured after adding 50 μL of 0.5 mM D-luciferin in 0.1 M sodium citrate buffer pH 5.0 to 10 μL of bacterial suspension into a microtiter plate.

[2] = substrate: Nc1ncnc2c1ncn2[C@@H]1O[C@H](COP(=O)(O)OP(=O)(O)OP(=O)(O)O)[C@@H](O)[C@H]1O; assay: KM determination, PvGR luciferase (light intensity in luminometer, Lineweaver-Burk plots); format: biochemical, Phrixothrix vivianii; details: other: ammonium sulfate fractionated extract, ATP 0.1-4 mM, 0.5 mM luciferin solution, 8 mM MgSO4, 0.1 M Tris-HCl, pH 8.0, 25° C.
Protocol: (§1) Liquid cultures of SOLR cells carrying luciferase insert containing pBl were grown on LB/amp (50 μg/mL) medium at 37° C. with shaking overnight. The preculture (1/100 vol) was then inoculated in LB/amp (50 μg/mL) in the presence of 1 mM IPTG and incubated at 23° C. during 24 h (OD600=1.8). The cells were harvested by centrifugation at 3000 rpm during 10 min at 4° C., and the pellet was resuspended in cold extraction buffer (0.1 M sodium phosphate buffer, pH 7.5, containing 2 mM EDTA, 1 mM DTT, and 1% Triton X-100). Lysozyme was added to the final concentration of 1 mg/mL and the suspension incubated 15 min at 0° C. and frozen at −80° C. during 15 min. The lysate was centrifuged at 12000 g at 4° C. during 15 min. The supernatant was then fractionated with ammonium sulfate. The fraction precipitated between 55% and 70% saturation was dissolved in cold extraction buffer and stored at −20° C. in the presence of glycerol 15%, to maintain the activity.
(§2) Measurements of light intensities for KM determinations were made using the luminometer described above. […] The assays were carried out at 25° C. Each point of the Michaelis-Menten curve was assayed in quadruplicate. The KM values were estimated by Lineweaver-Burk plots of the reciprocal of light intensities versus […].

[3] = substrate: O=C(O)[C@H]1CSC(c2nc3ccc(O)cc3s2)=N1; assay: purified protein, by the assay type; details: other: ammonium sulfate fractionated extract, luciferin 0.03-2 mM, 4 mM ATP solution, 8 mM MgSO4, 0.1 M Tris-HCl, pH 8.0, 25° C.
[4] = substrate: Nc1ncnc2c1ncn2[C@@H]1O[C@H](COP(=O)(O)OP(=O)(O)OP(=O)(O)O)[C@@H](O)[C@H]1O; assay: KM determination, PhRE luciferase (light intensity in luminometer, Lineweaver-Burk plots); format: biochemical, Phrixothrix hirtus; details: other: ammonium sulfate fractionated extract, ATP 0.1-4 mM, 0.5 mM luciferin solution, 8 mM MgSO4, 0.1 M Tris-HCl, pH 8.0, 25° C.
Protocol: as §1, §2

B1: Phrixothrix vivianii green light-emitting luciferase PvGR, recombinant, wild type, SEQ ID NO: 2 (Phrixothrix vivianii) (protein)
chain: MEEENIRHGERPRDIVHPGSAGQQLYQSLYKFASFPEAIIDAHTNEVISYAQIFETSCRLAVSIEQYGLNENNVVGVCSENNINFFNPVLAALYLGIPVATSNDMYTDGELTGHLNISKPTIMFSSKKALPLILRVQQNLSFIKKVVVIDSMYDINGVECVSTFVARYTDHTFDPLSFTPKDFDPLEKIALIMSSSGTTGLPKGVVLSHRSLTIRFVHSRDPIYGTRTVPQTSILSLVPFHHAFGMFTTLSYFVVGLKVVMLKKFEGALFLKTIQNYKIPTIVVAPPVMVFLAKSPLVDQYDLSSLTEVATGGAPLGKDVAEAVAKRLKLPGIIQGYGLTETCCAVMITPHNAVKTGSTGRPLPYIKAKVLDNATGKALGPGERGEICFQSEMIMKGYYNNPEATIDTIDKDGWLHSGDIGYYDEDGNFFIVDRLKELIKYKGYQVAPAELENLLLQHPSIADAGVTGVPDEFGGQLPAACVVLESGKTLTEKEVQDFIAAQVTPTKHLRGGVVFVDSIPKGPTGKLIRKELREIFAQRAPKSKL
[1]
  total light output: nearly the same values
[2]
  Km: 350 µM
[3]
  Km: 150 µM

B2: PhRE: recombinant red light-emitting luciferase of Phrixothrix hirtus head lanterns, 546 amino acid residues (protein, listed as Phrixothrix hirtus)
chain: MEEENVVNGDRPRDLVFPGTAGLQLYQSLYKYSYITDGIIDAHTNEVISYAQIFETSCRLAVSLEKYGLDHNNVVAICSENNIHFFGPLIAALYQGIPMATSNDMYTEREMIGHLNISKPCLMFCSKKSLPFILKVQKHLDFLKRVIVIDSMYDINGVECVFSFDSRNTDHAFDPVKFNPKEFDPLERTALIMTSSGTTGLPKGVVISHRSITIRFVHSSDPIYGTRIAPDTSILAIAPFHHAFGLFTALAYFPVGLKIVMVKKFEGEFFLKTIQNYKIASIVVPPPIMVYLAKSPLVDEYNCSSLTEIASGGSPLGRDIADKVAKRLKVHGILQGYGLTETCSALILSPNDRELKKGAIGTPMPYVQVKVIDINTGKALGPREKGEICFKSQMLMKGYHNNPQATRDALDKDGWLHTGDLGYYDEDRFIYVVDRLKELIKYKGYQVAPAELENLLLQHPNISDAGVIEFRTNLLVNYLSACVVLEPGKTMTEKEVQDYIAELVTTTKHLRGGVVFIDSIPKGPTGKLMRNELRAIFAREQAKSKL
[1]; compared with PvGR, results not shown
  rise time to the peak of intensity and decay rate of in vitro bioluminescence reaction: faster
[1]
  total light output: nearly the same values

B3: Phrixothrix hirtus red light-emitting luciferase PhRE, recombinant, wild type, SEQ ID NO: 4 (Phrixothrix hirtus) (protein)
chain: MEEENIVNGDRPRDLVFPGTAGLQLYQSLYKYSYITDGIIDAHTNEVISYAQIFETSCRLAVSLEKYGLDHNNVVAICSENNIHFFGPLIAALYQGIPMATSNDMYTEREMIGHLNISKPCLMFCSKKSLPFILKVQKHLDFLKKVIVIDSMYDINGVECVFSFVSRYTDHAFDPVKFNPKEFDPLERTALIMTSSGTTGLPKGVVISHRSITIRFVHSSDPIYGTRIAPDTSILAIAPFHHAFGLFTALAYFPVGLKIVMVKKFEGEFFLKTIQNYKIASIVVPPPIMVYLAKSPLVDEYNLSSLTEIACGGSPLGRDIADKVAKRLKVHGILQGYGLTETCSALILSPNDRELKKGAIGTPMPYVQVKVIDINTGKALGPREKGEICFKSQMLMKGYHNNPQATRDALDKDGWLHTGDLGYYDEDRFIYVVDRLKELIKYKGYQVAPAELENLLLQHPNISDAGVIGIPDEFAGQLPSACVVLEPGKTMTEKEVQDYIAELVTTTKHLRGGVVFIDSIPKGPTGKLMRNELRAIFAREQAKSKL
[4]
  Km: 240 µM
[3]
  Km: 20 µM
